This passage reports ECL signal results from patent US20120316071A1 (published 2012).

Where a chain is given by its changes, count along the chain named. In names and notes the source's numbering stands.

In assay [1] the target is T1, rHuman Erythropoietin R/Fc Chimera, CF (R&D Systems Cat#963-ER) (human, UniProt P19235 25-250).
T1 construct: Bought from R&D Systems; also called EPO R/Fc; Epo R/Fc chimera; not shown: Fc of the bought chimera
T1 sequence (looked up): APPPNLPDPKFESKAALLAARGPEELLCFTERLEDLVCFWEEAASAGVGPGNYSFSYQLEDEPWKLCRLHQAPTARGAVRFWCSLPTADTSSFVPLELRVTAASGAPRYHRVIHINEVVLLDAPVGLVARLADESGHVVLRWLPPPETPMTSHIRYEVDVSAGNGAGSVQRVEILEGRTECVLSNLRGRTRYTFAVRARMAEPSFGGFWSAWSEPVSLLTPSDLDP
Put plainly: MSD multispot ECL, antigen spotted on plate, Fab 352.5 nM; blank spot 494.

Assay [2] concerns the target T2, rHuman HGF R/c-MET/Fc Chimera, CF (R&D Systems Cat#358-MT/CF) (human, UniProt P08581 25-932).
T2 construct: Bought from R&D Systems; also called HGF R/Fc; hepatocyte growth factor receptor (HGF R/c-Met); not shown: Fc of the bought chimera
The description is as above.

Assay [3] addresses T3, rHuman EGF R/Fc Chimera, CF (R&D Systems Cat#344-ER) (human, UniProt P00533 25-645).
T3 construct: Bought from R&D Systems; also called epidermal growth factor receptor (EGF R); not shown: Fc of the bought chimera
The description is as above.

The target in assay [4] is T4, rHuman Notch-1/Fc Chimera, CF (R&D Systems Cat#3647-TK) (human, UniProt P46531 19-526).
T4 construct: Bought from R&D Systems; not shown: Fc of the bought chimera
Described as above.

The target in assay [5] is T5, Recombinant Human DLL4 (R&D Systems Cat#1506-D4/CF) (human, UniProt Q9NR61 27-524).
T5 construct: Bought from R&D Systems; also called rHuman DLL4; delta-like protein 4
The assay is described as above.

Assay [6] addresses T6, rHuman ErbB2/Fc Chimera, CF (R&D Systems Cat#1129-ER) (human, UniProt P04626 23-652).
T6 construct: Bought from R&D Systems; also called human epidermal growth factor 2 receptor (ErbB2); not shown: Fc of the bought chimera
The assay is described as above.

Assay [7] has as its target T7, rHuman P-Cadherin/Fc Chimera, CF (R&D Systems Cat#861-PC) (human, UniProt P22223 108-654).
T7 construct: Bought from R&D Systems; not shown: Fc of the bought chimera
The assay is described as above.

For assay [8], the target named is T8, rHuman IGF-1 sR, (IGF-1 sR), CF (R&D Systems Cat#391-GR) (human, UniProt P08069 31-932).
T8 construct: Bought from R&D Systems and called a soluble receptor; also called insulin-like growth factor-1 soluble receptor
The description is as above.

The target of assay [9] is T9, rHuman CD44/Fc Chimera, CF (R&D Systems Cat#3660-CD) (human, UniProt P16070 21-220).
T9 construct: Bought from R&D Systems; not shown: Fc of the bought chimera
The description is as above.

Assay [10] concerns the target T10, rHuman HGF R/c-MET/Fc Chimera, CF (R&D Systems Cat#358-MT/CF) (human, UniProt P08581 25-932).
T10 construct: Bought reagent; also called HGF R/Fc; hepatocyte growth factor receptor; Fc part of the bought chimera not given
Description: ECL Multispot (MSD) assay, antigen spotted on plate, 10 nM Fab; blank spot of this row 344.

For assay [11], the target named is T11, rHuman EGF R/Fc Chimera, CF (R&D Systems Cat#344-ER) (human, UniProt P00533 25-645).
T11 construct: Bought reagent; also called epidermal growth factor receptor; Fc part of the bought chimera not given
The assay is described as above.

Assay [12] addresses T12, rHuman Notch-1/Fc Chimera, CF (R&D Systems Cat#3647-TK) (human, UniProt P46531 19-526).
T12 construct: Bought Fc chimera; Fc part of the bought chimera not given
Put plainly: Multispot ECL (MSD) titration; antigen spotted on plate; Fab 232.5 nM; blank spot 460.

For assay [13], the target named is T13, rHuman IGF-1 sR (IGF-1 sR), CF (R&D Systems Cat#391-GR) (human, UniProt P08069 31-932).
T13 construct: Bought soluble receptor; also called insulin-like growth factor-1 soluble receptor
The description is as above.

The target in assay [14] is T14, rHuman CD44/Fc Chimera, CF (R&D Systems Cat#3660-CD) (human, UniProt P16070 21-220).
T14 construct: Bought Fc chimera; Fc part of the bought chimera not given
The description is as above.

For assay [15], the target named is T15, rHuman P-Cadherin/Fc Chimera, CF (R&D Systems Cat#861-PC) (human, UniProt P22223 108-654).
T15 construct: Bought Fc chimera; Fc part of the bought chimera not given
The assay is described as above.

The target in assay [16] is T16, rHuman ErbB2/Fc Chimera, CF (R&D Systems Cat#1129-ER) (human, UniProt P04626 23-652).
T16 construct: Bought Fc chimera; also called human epidermal growth factor 2 receptor; Fc part of the bought chimera not given
The description is as above.

The target in assay [17] is T17, rHuman Erythropoietin R/Fc Chimera, CF (R&D Systems Cat#963-ER) (human, UniProt P19235 25-250).
T17 construct: Bought Fc chimera; also called EPO R/Fc; EPO R; Fc part of the bought chimera not given
T17 sequence (looked up): T1 sequence (looked up)
Described as above.

B1: Fab VH1-46_IGHD3-10*01_IGHJ4*01 & B3_IGKJ1*01 (Fab, V domains shown)
VH: QVQLVQSGAEVKKPGASVKVSCKASGYTFTSYYMHWVRQAPGQGLEWMGIINPSGGSTSYAQKFQGRVTMTRDTSTSTVYMELSSLRSEDTAVYYCAREYYYGSGSYYNDYFDYWGQGTLVTVSS
VL: not shown
notes: Tested as a Fab made in E. coli; VH was cloned into Plasmid A (CH1 constant region, His6 and Flag tags); The kappa VL was cloned into Plasmid C (kappa CL)
B1: the ECL signal in assay [1] came out at 4100; in [2] it was 606; in [3], 769; in assay [4] it was 715; in assay [5] it was 660; in assay [6], 514. Moreover, the ECL signal in [7] stood at 649; in [8] it was 528; in [9] it was 556.

B2: Fab VH1-46_IGHD6-6*01_IGHJ1*01 S102A/S103P/S104F (APF) & L6_IGKJ1*01 (Fab, V domains shown)
VH: QVQLVQSGAEVKKPGASVKVSCKASGYTFTSYYMHWVRQAPGQGLEWMGIINPSGGSTSYAQKFQGRVTMTRDTSTSTVYMELSSLRSEDTAVYYCAREEYAPFSAEYFQHWGQGTLVTVSS
VL: not shown
notes: Tested as a Fab made in E. coli; also called H:APF & L:wt; APF triple mutant
In the case of B2, the ECL signal in [10] was 434; in assay [11], 371.

B3: Fab VH1-46_IGHD6-13*01_IGHJ4*01 & O1_IGKJ1*01 (Fab, V domains shown)
VH: B2 VH with E100G, A102S, P103S, F104S, S105W, A106Y, E107D, Q110D, H111Y
VL: DIVMTQTPLSLPVTPGEPASISCRSSQSLLDSDDGNTYLDWYLQKPGQSPQLLIYTLSYRASGVPDRFSGSGSGTDFTLKISRVEAEDVGVYYCMQRIEFPSWTFGQGTKVEIKR
notes: Germline library Fab expressed in E. coli; VH was cloned into Plasmid A (CH1 constant region, His6 and Flag tags); The kappa VL was cloned into Plasmid C (kappa CL)
Take B3: the ECL signal worked out at 778 in [12]; 569 in assay [13]; 607 in assay [14]; 655 in assay [15]; 779 in assay [16]; 1470 in assay [17].
